B1: glmS ribozyme (parent)
chain: AUAAAAGCGCCAGAACUACAGAAAUGUAGUUGACGAGGAGGAGGUUUAUCGAAUUUUCGGCGGAUGCCUCCAAA

What all share (details): with glucosamine-6-phosphate
Variants of B1 are the subject of data set [1]. Description: self-cleavage kobs at 40 uM GlcN6P; higher = faster cleavage; RNA array. Put shortly: (§1)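 kcat and KM were obtained from weighted Michaelis–Menten fits across concentrations of kobs values. Those came from one- or two-exponential decay fits to per-tile medians normalised to baseline and to non-cleaving reference variants. The variants were barcoded ribozymes transcribed in situ by E. coli RNA polymerase on sequenced MiSeq chips and tracked through a hybridised Cy3 probe at 37 °C, with 40 μM to 10 mM glucosamine-6-phosphate in HEPES/KCl/Mg(OAc)2 buffer flowed in.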

The variants in data set [2] derive from B1. Description: self-cleavage kobs at 640 uM GlcN6P; higher = faster cleavage; RNA array. Put shortly:
as §1

In data set [3] the parent is B1. As to the kind of experiment: self-cleavage kobs at 2500 uM GlcN6P; higher = faster cleavage; RNA array. Put shortly:
as §1

Variants of B1 are the subject of data set [4]. As to the kind of experiment: self-cleavage kobs at 160 uM GlcN6P; higher = faster cleavage; RNA array. A digest of the protocol:
as §1

The variants in data set [5] derive from B1. Description: self-cleavage kobs at 10000 uM GlcN6P; higher = faster cleavage; RNA array. A digest of the protocol: as §1

± gives the standard error. Fewer inactive variants are shown than the library holds.

For AUAAAAGCGCCAGAACUACAGAAAUGUAGUUGACCAGGAGGAGGUUUAACGAAUUUUCGGCGGAUGCCUCCAAA, in data set [1], the “self-cleavage kobs at 40 uM GlcN6P” value was less than 1e-05 s⁻¹. For the same variant, in data set [2], the “self-cleavage kobs at 640 uM GlcN6P” value is less than 1e-05 s⁻¹. In addition, the “self-cleavage kobs at 2500 uM GlcN6P” value in data set [3] was less than 1e-05 s⁻¹.

With AUAAAAGCCCAAGAACUACAGAAAUGUAGUUGACGAGGAGGAGGUUUAUCGAAUUUUCGGCGGAUGCCUCCAAA, the “self-cleavage kobs at 40 uM GlcN6P” value in data set [1] was less than 1e-05 s⁻¹. Besides, in data set [4], the “self-cleavage kobs at 160 uM GlcN6P” value is less than 1e-05 s⁻¹.

In the case of AUAAAAGCGCCAGAACUACAGAAAUGUAGAUGACGAGGAGGAGGUUUAUCGUAAUUUCGGCGGAUGCCUCAAAA, the “self-cleavage kobs at 40 uM GlcN6P” value in data set [1] is less than 1e-05 s⁻¹.

On to AUAAAAGCUCCAGAACUACAGAAAUGUAGUUGACGAGAAGGAGGUUUAUCGAAUUCUCGGCGUAUGCCUCCAAA, for which the “self-cleavage kobs at 40 uM GlcN6P” value in data set [1] was less than 1e-05 s⁻¹. For the same variant, the “self-cleavage kobs at 10000 uM GlcN6P” value in data set [5] was less than 1e-05 s⁻¹.

In the case of AUAAAAGCGCCAGAACUACAGAAAUGUAGUUGACGAGGAGGAGGCUUAUCGAAUUUUCGGCGGAUGACUGCAAA, the “self-cleavage kobs at 40 uM GlcN6P” value in data set [1] was less than 1e-05 s⁻¹. For the same variant, in data set [3], the “self-cleavage kobs at 2500 uM GlcN6P” value is less than 1e-05 s⁻¹.

Take AUAAAAGCGGCAGAACUACAGAAAUGUAGUUGACGAGGAGGAGGUUUAUCGGAUUUUCGGCGGAUGCCUCCAAA: the “self-cleavage kobs at 40 uM GlcN6P” value in data set [1] is less than 1e-05 s⁻¹. Also, in data set [3], the “self-cleavage kobs at 2500 uM GlcN6P” value was less than 1e-05 s⁻¹. In addition, the “self-cleavage kobs at 10000 uM GlcN6P” value in data set [5] is less than 1e-05 s⁻¹.

Take AUAAAAGCGCCAGAACUACAGAAAUGUAGUUGACGAGGAGGAGGUUUAUCGAAUUUUGGGCGGGUGCAUCCAAA: in data set [1], the “self-cleavage kobs at 40 uM GlcN6P” value worked out at 4.76e-05 ± 1.8e-05 s⁻¹. Besides, the “self-cleavage kobs at 640 uM GlcN6P” value in data set [2] was 0.00061 ± 0.00029 s⁻¹. Also, the “self-cleavage kobs at 2500 uM GlcN6P” value in data set [3] was 5.81e-05 ± 2.1e-05 s⁻¹.

With AUAAAAGCUCCAGAACUACAGAAAUGUAGUUGACAAGGAGGAGGUUUAUCGAAUUUUCGGCGGAUGCCUCCAAA, the “self-cleavage kobs at 40 uM GlcN6P” value in data set [1] was less than 1e-05 s⁻¹. The “self-cleavage kobs at 160 uM GlcN6P” value in data set [4] was less than 1e-05 s⁻¹. The “self-cleavage kobs at 640 uM GlcN6P” value in data set [2] is less than 1e-05 s⁻¹. Further, the “self-cleavage kobs at 2500 uM GlcN6P” value in data set [3] was less than 1e-05 s⁻¹. Further, in data set [5], the “self-cleavage kobs at 10000 uM GlcN6P” value is less than 1e-05 s⁻¹.

For the variant AUAAAAGCGCCUGAACUACAGAAAUGUAGUUGACGAGGAGUGGGUUUAUCGAAUUUUCGGCGGAUGCCUCCAAA, the “self-cleavage kobs at 40 uM GlcN6P” value in data set [1] was determined as 0.000102 ± 1.6e-05 s⁻¹. In addition, the “self-cleavage kobs at 10000 uM GlcN6P” value in data set [5] is 0.00149 ± 0.0003 s⁻¹.

With AUAAAAGCGCCAGCACUACAGAAAUGUAGUUAACGAGGAGGUGGUUUAUCGAAGUUUCGGCGGAUGCCUCCAAA, in data set [1], the “self-cleavage kobs at 40 uM GlcN6P” value was less than 1e-05 s⁻¹.

Regarding AUAAAAGCGCCAGAACUACAGAAAUGUAGUUGGCGAGGACGAGGUUUAUCGAAUUUUCGGCGGAUGCCUUCAAA, the “self-cleavage kobs at 40 uM GlcN6P” value in data set [1] was less than 1e-05 s⁻¹. Besides, the “self-cleavage kobs at 10000 uM GlcN6P” value in data set [5] is less than 1e-05 s⁻¹.

For the variant AUAAAAGCGCCAGAACUACAGAAAUGUAGUUGACGAGGAGGAGGUCUAUCGAAUUUUCGGGGGAUGCCUCCAAA, in data set [1], the “self-cleavage kobs at 40 uM GlcN6P” value is less than 1e-05 s⁻¹. In addition, the “self-cleavage kobs at 160 uM GlcN6P” value in data set [4] is less than 1e-05 s⁻¹. Moreover, the “self-cleavage kobs at 640 uM GlcN6P” value in data set [2] was less than 1e-05 s⁻¹. For the same variant, in data set [3], the “self-cleavage kobs at 2500 uM GlcN6P” value is less than 1e-05 s⁻¹.

On to AUAAAAGCGCCAGAACUACAGAAAUGUAGUUGACGAAGAGGAGGUUUAUCGAAUUUUCGGAGGAUGCCUCCAAA, for which, in data set [1], the “self-cleavage kobs at 40 uM GlcN6P” value is less than 1e-05 s⁻¹. Also, in data set [2], the “self-cleavage kobs at 640 uM GlcN6P” value is less than 1e-05 s⁻¹. Further, in data set [5], the “self-cleavage kobs at 10000 uM GlcN6P” value was less than 1e-05 s⁻¹.

Regarding AUAAAACCGCCAGUACUACAGAAAUGUAGUUGACGAGGAGGAGGUUUAUCGAAUUUUCGGCGGAUGCCUCCAAA, the “self-cleavage kobs at 40 uM GlcN6P” value in data set [1] is less than 1e-05 s⁻¹. Further, the “self-cleavage kobs at 160 uM GlcN6P” value in data set [4] was less than 1e-05 s⁻¹. Further, in data set [2], the “self-cleavage kobs at 640 uM GlcN6P” value is less than 1e-05 s⁻¹. The “self-cleavage kobs at 2500 uM GlcN6P” value in data set [3] was less than 1e-05 s⁻¹.

Turning to AUAAAAGCGCCAGAACUACAGAAAUGUAGUUGACGAGGAGGAGGUUAAUCUAAUUUUCGGCGGAUGCCUCCAAA, in data set [1], the “self-cleavage kobs at 40 uM GlcN6P” value is less than 1e-05 s⁻¹. The “self-cleavage kobs at 160 uM GlcN6P” value in data set [4] is less than 1e-05 s⁻¹. In addition, in data set [5], the “self-cleavage kobs at 10000 uM GlcN6P” value is less than 1e-05 s⁻¹.

With AUAAAAGCGCCAGACGUACAGAAAUGUAGUUGACGAGGAGGAGGUUUAUCGAAUUUUCGGCGGAUGCCUCCAAA, the “self-cleavage kobs at 40 uM GlcN6P” value in data set [1] came out at 5.89e-05 ± 1.4e-05 s⁻¹. In data set [2], the “self-cleavage kobs at 640 uM GlcN6P” value was 0.000438 ± 5.6e-05 s⁻¹. Further, the “self-cleavage kobs at 10000 uM GlcN6P” value in data set [5] was determined as 0.00295 ± 0.00045 s⁻¹.

CUAAAAGCGCCAGAACUACAGAAAUGUAGUUGACGAGGAGGAGGUUUAUCGAAUUUUCGGCGGAUGCCUCCAAA: in data set [1], the “self-cleavage kobs at 40 uM GlcN6P” value stood at 0.00111 ± 0.00028 s⁻¹. Further, the “self-cleavage kobs at 160 uM GlcN6P” value in data set [4] amounted to 0.00363 ± 0.00095 s⁻¹. Also, in data set [2], the “self-cleavage kobs at 640 uM GlcN6P” value came out at 0.0192 ± 0.0042 s⁻¹. Moreover, in data set [3], the “self-cleavage kobs at 2500 uM GlcN6P” value stood at 0.0128 ± 0.0042 s⁻¹. Further, the “self-cleavage kobs at 10000 uM GlcN6P” value in data set [5] came out at 0.0709 ± 0.033 s⁻¹.

Turning to AUAAAAGAGCCAGAACUACAGAAAUGUAGUUGACGAGGAGGAGGUUUAUCGAAUUUUCGGCGGAUGCAUCCAAA, the “self-cleavage kobs at 40 uM GlcN6P” value in data set [1] is less than 1e-05 s⁻¹. The “self-cleavage kobs at 160 uM GlcN6P” value in data set [4] was less than 1e-05 s⁻¹. Further, in data set [2], the “self-cleavage kobs at 640 uM GlcN6P” value is less than 1e-05 s⁻¹. Besides, the “self-cleavage kobs at 2500 uM GlcN6P” value in data set [3] was less than 1e-05 s⁻¹.

Take AUAAAAGCGCCAGAACUACAGAAAUGUAGUGGACGAGGAGGCGGUUUAUCGAAUUUUCGGCGGAUGCCUUCAAA: the “self-cleavage kobs at 40 uM GlcN6P” value in data set [1] is less than 1e-05 s⁻¹.

AUAAAAGCGCCAGAACUACAGAAAUGUAGUUGACGAGGAGGAGGUUUAUCGAAUUUUCGUCGGAUGCGUCCAAA: the “self-cleavage kobs at 40 uM GlcN6P” value in data set [1] is less than 1e-05 s⁻¹. The “self-cleavage kobs at 160 uM GlcN6P” value in data set [4] is less than 1e-05 s⁻¹. The “self-cleavage kobs at 640 uM GlcN6P” value in data set [2] is less than 1e-05 s⁻¹. The “self-cleavage kobs at 2500 uM GlcN6P” value in data set [3] is less than 1e-05 s⁻¹. Further, in data set [5], the “self-cleavage kobs at 10000 uM GlcN6P” value was less than 1e-05 s⁻¹.

Take AUAAAAGUGCCAGAACUACAGAAAUGUAGUUGACGAGGAUGAGGUUUAUCGAAUUUUCGGCGGAUGCCUACAAA: the “self-cleavage kobs at 40 uM GlcN6P” value in data set [1] is less than 1e-05 s⁻¹. Further, the “self-cleavage kobs at 10000 uM GlcN6P” value in data set [5] was less than 1e-05 s⁻¹.

Turning to AUAAAAGCGCCAGAACUACAGAAAUGUAGUUGAGGAGGAGGAGGUUUAUCGAAGUUUCGGCGGAUGCCUCCAAA, the “self-cleavage kobs at 40 uM GlcN6P” value in data set [1] is less than 1e-05 s⁻¹. In data set [4], the “self-cleavage kobs at 160 uM GlcN6P” value was less than 1e-05 s⁻¹. Besides, the “self-cleavage kobs at 640 uM GlcN6P” value in data set [2] was less than 1e-05 s⁻¹. Further, the “self-cleavage kobs at 10000 uM GlcN6P” value in data set [5] was less than 1e-05 s⁻¹.

Consider AUAAAAGCGCCAGAACUACAGAAAUGUAGUUGACGAGGAGGAGGUUUAUCGAUUUUUCGGCCGAUGCCUCCAAA, for which, in data set [1], the “self-cleavage kobs at 40 uM GlcN6P” value is less than 1e-05 s⁻¹. For the same variant, the “self-cleavage kobs at 640 uM GlcN6P” value in data set [2] was less than 1e-05 s⁻¹. The “self-cleavage kobs at 2500 uM GlcN6P” value in data set [3] was less than 1e-05 s⁻¹. Also, in data set [5], the “self-cleavage kobs at 10000 uM GlcN6P” value was less than 1e-05 s⁻¹.

Consider AUAAAAGCGCCAGAACUACAGAAAUGUAGUUGACGAGGAGGAGGUUUAUCGAAUUUUCGACUGAUGCCUCCAAA, for which, in data set [1], the “self-cleavage kobs at 40 uM GlcN6P” value is less than 1e-05 s⁻¹. For the same variant, the “self-cleavage kobs at 160 uM GlcN6P” value in data set [4] was less than 1e-05 s⁻¹. Besides, the “self-cleavage kobs at 640 uM GlcN6P” value in data set [2] is less than 1e-05 s⁻¹. The “self-cleavage kobs at 2500 uM GlcN6P” value in data set [3] is less than 1e-05 s⁻¹.

Regarding AUAAAUGCGCCAGAACUACAGAAAUGUAGUUGAUGAGGAGGAGGUUUAUCGAAUUUUCGGCGGAUGCCUCCAAA, the “self-cleavage kobs at 40 uM GlcN6P” value in data set [1] was less than 1e-05 s⁻¹. Further, the “self-cleavage kobs at 160 uM GlcN6P” value in data set [4] is less than 1e-05 s⁻¹. Besides, the “self-cleavage kobs at 640 uM GlcN6P” value in data set [2] was less than 1e-05 s⁻¹. Also, the “self-cleavage kobs at 10000 uM GlcN6P” value in data set [5] is less than 1e-05 s⁻¹.

With AUAAAAGAGCCAGAACUACAGAAAUGUAGUUGACGAGGAGGAGGUUCAUCGAAUUUUCGGCGGAAGCCUCCAAA, the “self-cleavage kobs at 40 uM GlcN6P” value in data set [1] is less than 1e-05 s⁻¹.
